According to patent US20230340114A1 (IMMUNE ONC THERAPEUTICS, published 2023):
Changes are numbered by the printed parent chain.

B1: 4ab4ab-3 (bispecific antibody, human IgG1, kappa, L234A L235A)
heavy 1: not shown
heavy 2: EVQLVESGGGLVQPGGSLRLSCAASGFSLSSSYWISWVRQAPGKGLEWIGSIDSGSVGITYYATWVKGRFTISRDNSKNTLYLQMNSLRAEDTAVYYCARHGDNWALDLWGQGTLVTVLEDLKNVFPPEVAVFEPSEAEISHTQKATLVCLATGFYPDHVELSWWVNGKEVHSGVCTDPQPLKEQPALQDSRYALSSRLRVSATFWQNPRNHFRCQVQFYGLSENDEWTQDRAKPVTQIVSAEAWGRGGGGSGGGGSEVQLVESGGGLVQPGGSLRLSCAASGFSLSSSYWISWVRQAPGKGLEWIGSIDSGSVGITYYATWVKGRFTISRDNSKNTLYLQMNSLRAEDTAVYYCARHGDNWALDLWGQGTLVTVLEDLKNVFPPEVAVFEPSEAEISHTQKATLVCLATGFYPDHVELSWWVNGKEVHSGVCTDPQPLKEQPALQDSRYALSSRLRVSATFWQNPRNHFRCQVQFYGLSENDEWTQDRAKPVTQIVSAEAWGRASDKTHTCPPCPAPELLGGPSVFLFPPKPKDTLMISRTPEVTCVVVDVSHEDPEVKFNWYVDGVEVHNAKTKPREEQYNSTYRVVSVLTVLHQDWLNGKEYKCKVSNKALPAPIEKTISKAKGQPREPQVCTLPPSREEMTKNQVSLSCAVKGFYPSDIAVEWESNGQPENNYKTTPPVLDSDGSFFLVSKLTVDKSRWQQGNVFSCSVMHEALHNHYTQKSLSLSPG
light 1: not shown
light 2: DIQMTQSPSTLSASVGDRVTITCRASQSISSWLAWYQQKPGKAPKLLIYKASTLASGVPSRFSGSGSGTEFTLTISSLQPDDFATYYCQHGYIRGDLDNVFGGGTKVEIKPDIQNPDPAVYQLRDSKSSDKSVCLFTDFDSQTQVSQSKDSDVYITDKCVLDMRSMDFKSNSAVAWSQKSDFACANAFQNSIIPEDTFFPSPESS
notes: also called first-generation LILRB4/CD3 bispecific antibody No. 4
B2: 4ab3-4ab (bispecific antibody, human IgG1, kappa, L234A L235A)
heavy 1: not shown
heavy 2: EVQLVESGGGLVQPGGSLRLSCAASGFSLSSSYWISWVRQAPGKGLEWIGSIDSGSVGITYYATWVKGRFTISRDNSKNTLYLQMNSLRAEDTAVYYCARHGDNWALDLWGQGTLVTVLEDLKNVFPPEVAVFEPSEAEISHTQKATLVCLATGFYPDHVELSWWVNGKEVHSGVCTDPQPLKEQPALQDSRYALSSRLRVSATFWQNPRNHFRCQVQFYGLSENDEWTQDRAKPVTQIVSAEAWGRASDKTHTCPPCPAPEAAGGPSVFLFPPKPKDTLMISRTPEVTCVVVDVSHEDPEVKFNWYVDGVEVHNAKTKPREEQYNSTYRVVSVLTVLHQDWLNGKEYKCKVSNKALPAPIEKTISKAKGQPREPQVCTLPPSREEMTKNQVSLSCAVKGFYPSDIAVEWESNGQPENNYKTTPPVLDSDGSFFLVSKLTVDKSRWQQGNVFSCSVMHEALHNHYTQKSLSLSPG
light 1: not shown
light 2: B1 light 2
notes: also called first-generation LILRB4/CD3 bispecific antibody No. 6
B3: 44-3ab (bispecific antibody, human IgG1, kappa, L234A L235A)
heavy 1: not shown
heavy 2: EVQLVESGGGLVQPGGSLRLSCAASGFSLSSSYWISWVRQAPGKGLEWIGSIDSGSVGITYYATWVKGRFTISRDNSKNTLYLQMNSLRAEDTAVYYCARHGDNWALDLWGQGTLVTVSSASTKGPSVFPLAPSSKSTSGGTAALGCLVKDYFPEPVTVSWNSGALTSGVHTFPAVLQSSGLYSLSSVVTVPSSSLGTQTYICNVNHKPSNTKVDKRVEPKSCGGGGSGGGGSEVQLVESGGGLVQPGGSLRLSCAASGFSLSSSYWISWVRQAPGKGLEWIGSIDSGSVGITYYATWVKGRFTISRDNSKNTLYLQMNSLRAEDTAVYYCARHGDNWALDLWGQGTLVTVSSASTKGPSVFPLAPSSKSTSGGTAALGCLVKDYFPEPVTVSWNSGALTSGVHTFPAVLQSSGLYSLSSVVTVPSSSLGTQTYICNVNHKPSNTKVDKRVEPKSCDKTHTCPPCPAPEAAGGPSVFLFPPKPKDTLMISRTPEVTCVVVDVSHEDPEVKFNWYVDGVEVHNAKTKPREEQYNSTYRVVSVLTVLHQDWLNGKEYKCKVSNKALPAPIEKTISKAKGQPREPQVCTLPPSREEMTKNQVSLSCAVKGFYPSDIAVEWESNGQPENNYKTTPPVLDSDGSFFLVSKLTVDKSRWQQGNVFSCSVMHEALHNHYTQKSLSLSPG
light 1: DIVMTQSPDSLAVSLGERATINCKSSQSLLNSRTRKNYLAWYQQKPGQPPKLLIYWASTRQSGVPDRFSGSGSGTDFTLTISSLQAEDVAVYYCTQSHTLRTFGGGTKVEIKPDIQNPDPAVYQLRDSKSSDKSVCLFTDFDSQTQVSQSKDSDVYITDKCVLDMRSMDFKSNSAVAWSQKSDFACANAFQNSIIPEDTFFPSPESS
light 2: DIQMTQSPSTLSASVGDRVTITCRASQSISSWLAWYQQKPGKAPKLLIYKASTLASGVPSRFSGSGSGTEFTLTISSLQPDDFATYYCQHGYIRGDLDNVFGGGTKVEIKRTVAAPSVFIFPPSDEQLKSGTASVVCLLNNFYPREAKVQWKVDNALQSGNSQESVTEQDSKDSTYSLSSTLTLSKADYEKHKVYACEVTHQGLSSPVTKSFNRGEC
notes: also called first-generation LILRB4/CD3 bispecific antibody No. 3
B4: 43ab-4 (bispecific antibody, human IgG1, kappa, L234A L235A)
heavy 1: not shown
heavy 2: EVQLVESGGGLVQPGGSLRLSCAASGFSLSSSYWISWVRQAPGKGLEWIGSIDSGSVGITYYATWVKGRFTISRDNSKNTLYLQMNSLRAEDTAVYYCARHGDNWALDLWGQGTLVTVSSASTKGPSVFPLAPSSKSTSGGTAALGCLVKDYFPEPVTVSWNSGALTSGVHTFPAVLQSSGLYSLSSVVTVPSSSLGTQTYICNVNHKPSNTKVDKRVEPKSCDKTHTCPPCPAPEAAGGPSVFLFPPKPKDTLMISRTPEVTCVVVDVSHEDPEVKFNWYVDGVEVHNAKTKPREEQYNSTYRVVSVLTVLHQDWLNGKEYKCKVSNKALPAPIEKTISKAKGQPREPQVCTLPPSREEMTKNQVSLSCAVKGFYPSDIAVEWESNGQPENNYKTTPPVLDSDGSFFLVSKLTVDKSRWQQGNVFSCSVMHEALHNHYTQKSLSLSPG
light 1: B3 light 1
light 2: B3 light 2
notes: also called first-generation LILRB4/CD3 bispecific antibody No. 5
B5: H7K3 variant 5, K3m1 (N/V) (antibody, V domains shown)
VH: EVQLVESGGGLVQPGGSLRLSCAASGFSLSSSYWISWVRQAPGKGLEWIGSIDSGSVGITYYATWVKGRFTISRDNSKNTLYLQMNSLRAEDTAVYYCARHGDNWALDLWGQGTLVTVSS
VL: DIQMTQSPSTLSASVGDRVTITCRASQSIVSWLAWYQQKPGKAPKLLIYKASTLASGVPSRFSGSGSGTEFTLTISSLQPDDFATYYCQHGYIRGDLDNVFGGGTKVEIK
B6: H7K3 variant 12, K3m8 (S/V) (antibody, V domains shown)
VH: B5 VH
VL: B5 VL with V30N, S31V
B7: H7K3 variant 8, K3m4 (N/Q) (antibody, V domains shown)
VH: B5 VH
VL: B5 VL with V30Q
B8: H7K3 variant 11, K3m7 (S/Q) (antibody, V domains shown)
VH: B5 VH
VL: B5 VL with V30N, S31Q

biological target: T1, human LILRB4 expressed on cells (human, UniProt Q8NHJ6 22-448); assay: cell-based or functional assay

| Binder | Monocyte (max %), Donor 1 [%] | Monocyte (max %), Donor 2 [%] | Monocyte (max %), Donor 3 [%] | Monocyte killing EC50, Donor 1 [pM] | Monocyte killing EC50, Donor 2 [pM] | Monocyte killing EC50, Donor 3 [pM] | T-cell cytotoxicity, THP-1 (max %) [%] | T-cell cytotoxicity, THP-1 EC50 (estimated) [pM] | T-cell cytotoxicity, THP-1 EC50 [pM] |
| --- | --- | --- | --- | --- | --- | --- | --- | --- | --- |
| B1 | 55 | 59 | 54.5 | 1.3 | 0.32 | 2.9 | 98.3 | < 0.01 |  |
| B2 | 29 | 44 | 44 | 0.43 | 0.93 | 1.6 | 98.1 | < 0.01 |  |
| B3 | 39 | 30 | 0 |  | 3.4 |  | 96.4 |  | 0.43 |
| B4 | 45 | 0 | 42 | 0.19 |  | 0.084 | 98.7 | < 0.01 |  |

biological target: T2, flag-tagged cynomolgus monkey LILRB4 expressed on CHO-K1 cells (cynomolgus monkey); assay: FACS, CHO-stable cells expressing cyno LILRB4
T2 construct: whole, on cells; also called cyno LILRB4

| Binder | EC50 [pM] |
| --- | --- |
| B5 | 1230 |
| B6 | 933 |
| B7 | 989 |
| B8 | 974 |

biological target: T1, human LILRB4 expressed on cells; assay: FACS, CHO-stable cells expressing human LILRB4

| Binder | EC50 [pM] |
| --- | --- |
| B5 | 463 |
| B6 | 402 |
| B7 | 480 |
| B8 | 455 |

biological target: T3, recombinant human LILRB4 protein (Sino Biological, cat #16742-H08H) (human, UniProt Q8NHJ6 22-259); assay: SPR (Biacore 8K), LILRB4 immobilized on CM5 chip, bispecific as analyte, 1:1 model
T3 construct: extracellular domain; also called LILRB4 recombinant protein (Sino Biological); Human LILRB4 ECD-his; not shown: his tag
Procedure: (§1) Binding affinities of first-generation bispecific antibodies to recombinant CD3e-CD3d heterodimer protein (Acro Biosystems) or LILRB4 recombinant protein (Sino Biological) were measured by surface plasmon resonance using a Biacore 8K instrument. Briefly, CD3e-CD3d or LILRB4 protein was immobilized on a CM5 chip with EDC and NHS according to standard protocols. […] The chip was regenerated using 10 mM glycine pH 1.5 as the regeneration buffer. The sensorgrams for reference channel Fc1 and buffer channel were subtracted from the test sensorgrams and the experimental data was fitted by 1:1 binding model.

| Binder | Kd [pM] |
| --- | --- |
| B1 | 260 |
| B2 | 260 |
| B3 | 230 |
| B4 | 290 |

biological target: recombinant CD3e-CD3d heterodimer protein (Acro Biosystems) (UniProt P07766 23-126; P04234 22-105); assay: SPR (Biacore 8K), CD3e-CD3d immobilized on CM5 chip, bispecific as analyte, 1:1 model
Procedure: as §1

recombinant CD3e-CD3d heterodimer protein (Acro Biosystems), sequence (P07766 23-126 limits assumed, chain 1 of 2): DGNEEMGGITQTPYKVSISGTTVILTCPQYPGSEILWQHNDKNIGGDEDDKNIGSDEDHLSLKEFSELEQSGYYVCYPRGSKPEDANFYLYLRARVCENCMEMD
recombinant CD3e-CD3d heterodimer protein (Acro Biosystems), sequence (P04234 22-105 limits assumed, chain 2 of 2): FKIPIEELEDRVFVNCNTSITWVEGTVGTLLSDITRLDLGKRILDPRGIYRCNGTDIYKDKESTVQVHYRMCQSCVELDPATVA

| Binder | Kd [pM] |
| --- | --- |
| B1 | 26800 |
| B2 | 57300 |
| B3 | 42100 |
| B4 | 47000 |
